# Tested on: Escherichia coli TOP10
# Test: shrunken log2 fold change of peptide-encoding DNA abundance (4.5 h post-induction vs induction); higher = less antimicrobial activity (less host growth inhibition)
# Settings: time post-induction: 4.5 h; library: site-saturation at positions 5, 18, 19, 20
# 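Note: peptides expressed intracellularly from a pBAD plasmid library in pooled LB shake-flask culture, induced with 0.3% L-arabinose, DNA abundance read by NGS, three biological replicates, DESeq2 with apeglm shrinkage.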
row,Sequence,shrunken log2 fold change
1,RRIRVRPPRLPRPRPRPRITPRP,-0.11
2,RRIRLRPPRLPRPRPRPRIIPRP,-1.12
3,RRIRMRPPRLPRPRPRPLSYPRP,0.134
4,RRIRMRPPRLPRPRPRPFICPRP,0.0468
5,RRIRARPPRLPRPRPRPYLGPRP,0.0554
6,RRIRKRPPRLPRPRPRPVDTPRP,0.0388
7,RRIRCRPPRLPRPRPRPEVQPRP,0.267
8,RRIRLRPPRLPRPRPRPHHAPRP,-0.058
9,RRIRTRPPRLPRPRPRPEGGPRP,0.203
10,RRIRYRPPRLPRPRPRPAKAPRP,0.0797
11,RRIRHRPPRLPRPRPRPTFYPRP,-0.183
12,RRIRWRPPRLPRPRPRPSHSPRP,-0.0913
13,RRIRMRPPRLPRPRPRPPKYPRP,-0.0762
14,RRIRTRPPRLPRPRPRPYYHPRP,-0.581
15,RRIRDRPPRLPRPRPRPISCPRP,-0.0129
16,RRIRIRPPRLPRPRPRPMTGPRP,-0.4
17,RRIRRRPPRLPRPRPRPVYEPRP,0.15
18,RRIRDRPPRLPRPRPRPEDFPRP,0.427
19,RRIRRRPPRLPRPRPRPVNWPRP,0.439
20,RRIRHRPPRLPRPRPRPCVQPRP,-0.131
21,RRIRPRPPRLPRPRPRPQTWPRP,-0.254
22,RRIRTRPPRLPRPRPRPAKQPRP,-0.0125

row,Sequence,shrunken log2 fold change
1,RRIRRRPPRLPRPRPRPDKAPRP,-0.131
2,RRIRRRPPRLPRPRPRPMFDPRP,0.195
3,RRIRWRPPRLPRPRPRPIWGPRP,-0.01
4,RRIRDRPPRLPRPRPRPTQQPRP,0.248
5,RRIRCRPPRLPRPRPRPSDFPRP,-0.203
6,RRIRGRPPRLPRPRPRPPKLPRP,0.524
7,RRIRTRPPRLPRPRPRPCHTPRP,-0.166
8,RRIRSRPPRLPRPRPRPNWKPRP,0.00354
9,RRIRERPPRLPRPRPRPRDTPRP,-0.0322
10,RRIRMRPPRLPRPRPRPEPDPRP,1.12
11,RRIRWRPPRLPRPRPRPPHYPRP,0.24
12,RRIRWRPPRLPRPRPRPANKPRP,-0.348
13,RRIRYRPPRLPRPRPRPQGCPRP,-0.557
14,RRIRMRPPRLPRPRPRPFHSPRP,-0.0121
15,RRIRRRPPRLPRPRPRPGWGPRP,0.497
16,RRIRHRPPRLPRPRPRPSYYPRP,-1.56
17,RRIRKRPPRLPRPRPRPLGIPRP,4.29
18,RRIRYRPPRLPRPRPRPKNTPRP,-0.579
19,RRIRERPPRLPRPRPRPIYMPRP,-0.372
20,RRIRERPPRLPRPRPRPALQPRP,0.22
21,RRIRWRPPRLPRPRPRPHHMPRP,-0.592
22,RRIRQRPPRLPRPRPRPDDRPRP,-0.000777

row,Sequence,shrunken log2 fold change
1,RRIRLRPPRLPRPRPRPAMDPRP,0.113
2,RRIRHRPPRLPRPRPRPHITPRP,-0.857
3,RRIRERPPRLPRPRPRPKYYPRP,-0.183
4,RRIRLRPPRLPRPRPRPWIRPRP,-0.0231
5,RRIRGRPPRLPRPRPRPNRLPRP,0.104
6,RRIRSRPPRLPRPRPRPTFRPRP,-0.0691
7,RRIRARPPRLPRPRPRPEGFPRP,0.566
8,RRIRDRPPRLPRPRPRPIMVPRP,-0.103
9,RRIRDRPPRLPRPRPRPETAPRP,1.15
10,RRIRGRPPRLPRPRPRPWWYPRP,-0.119
11,RRIRKRPPRLPRPRPRPSLVPRP,0.174
12,RRIRHRPPRLPRPRPRPLHGPRP,0.00793
13,RRIRLRPPRLPRPRPRPGFVPRP,0.487
14,RRIRKRPPRLPRPRPRPVKYPRP,0.221
15,RRIRHRPPRLPRPRPRPNLRPRP,0.00562
16,RRIRRRPPRLPRPRPRPWTSPRP,-0.0576
17,RRIRERPPRLPRPRPRPKTYPRP,-0.771
18,RRIRCRPPRLPRPRPRPKWIPRP,-0.366
19,RRIRMRPPRLPRPRPRPIWGPRP,0.0405
20,RRIRGRPPRLPRPRPRPLMPPRP,0.285
21,RRIRNRPPRLPRPRPRPTYYPRP,-0.325
22,RRIRVRPPRLPRPRPRPCNRPRP,-0.0287

row,Sequence,shrunken log2 fold change
1,RRIRGRPPRLPRPRPRPFMQPRP,0.165
2,RRIRRRPPRLPRPRPRPWDKPRP,0.0425
3,RRIRWRPPRLPRPRPRPPAWPRP,0.794
4,RRIRSRPPRLPRPRPRPRIIPRP,-0.712
5,RRIRIRPPRLPRPRPRPGYCPRP,-0.371
6,RRIRGRPPRLPRPRPRPHTKPRP,0.104
7,RRIRCRPPRLPRPRPRPGCKPRP,0.0416
8,RRIRQRPPRLPRPRPRPCIVPRP,-0.747
9,RRIRARPPRLPRPRPRPMQYPRP,0.00958
10,RRIRERPPRLPRPRPRPFIFPRP,-0.476
11,RRIRWRPPRLPRPRPRPNVNPRP,-0.171
12,RRIRERPPRLPRPRPRPEPVPRP,-0.00161
13,RRIRNRPPRLPRPRPRPVCRPRP,0.0204
14,RRIRIRPPRLPRPRPRPGVQPRP,-0.00174
15,RRIRLRPPRLPRPRPRPDQCPRP,-0.0609
16,RRIRHRPPRLPRPRPRPYKLPRP,-0.611
17,RRIRTRPPRLPRPRPRPHCIPRP,-0.489
18,RRIRVRPPRLPRPRPRPPHVPRP,0.283
19,RRIRPRPPRLPRPRPRPSNYPRP,-0.733
20,RRIRWRPPRLPRPRPRPWEQPRP,0.0277
21,RRIRTRPPRLPRPRPRPNCKPRP,-0.218
22,RRIRCRPPRLPRPRPRPSNAPRP,-0.572

row,Sequence,shrunken log2 fold change
1,RRIRKRPPRLPRPRPRPIRGPRP,0.0181
2,RRIRKRPPRLPRPRPRPSFHPRP,-0.219
3,RRIRGRPPRLPRPRPRPWMVPRP,0.213
4,RRIRCRPPRLPRPRPRPEYRPRP,-0.00301
5,RRIRHRPPRLPRPRPRPDYIPRP,-0.0135
6,RRIRARPPRLPRPRPRPKLYPRP,0.0318
7,RRIRGRPPRLPRPRPRPVNCPRP,0.139
8,RRIRDRPPRLPRPRPRPNALPRP,-0.0157
9,RRIRNRPPRLPRPRPRPTCGPRP,0.073
10,RRIRARPPRLPRPRPRPSDPPRP,-0.0252
11,RRIRVRPPRLPRPRPRPDCMPRP,0.116
12,RRIRYRPPRLPRPRPRPAMPPRP,-0.549
13,RRIRSRPPRLPRPRPRPVLWPRP,0.657
14,RRIRPRPPRLPRPRPRPHCRPRP,-0.198
15,RRIRDRPPRLPRPRPRPKCKPRP,-0.0015
16,RRIRIRPPRLPRPRPRPQHPPRP,-0.176
17,RRIRHRPPRLPRPRPRPPVAPRP,0.0782
18,RRIRPRPPRLPRPRPRPRNKPRP,-0.136
19,RRIRTRPPRLPRPRPRPRWAPRP,0.541
20,RRIRPRPPRLPRPRPRPRTPPRP,0.536
21,RRIRHRPPRLPRPRPRPVCLPRP,-0.0609

# From the supplement of paper PMC9112550, “Optimization of the antimicrobial peptide Bac7 by deep mutational scanning” (BMC Biology, 2022)
